Laboratory results reported in patent US10202593B2, “Evolved sortases and uses thereof” (President and Fellows of Harvard College, priority 2013, dated 2019).

T1: fetuin A in human plasma (Homo sapiens, UniProt P02765)
T1 construct: site-specific modification of endogenous fetuin A in human plasma; tissue VWR 89347-902; host or cells: normal human plasma
T1 sequence (P02765 19-367): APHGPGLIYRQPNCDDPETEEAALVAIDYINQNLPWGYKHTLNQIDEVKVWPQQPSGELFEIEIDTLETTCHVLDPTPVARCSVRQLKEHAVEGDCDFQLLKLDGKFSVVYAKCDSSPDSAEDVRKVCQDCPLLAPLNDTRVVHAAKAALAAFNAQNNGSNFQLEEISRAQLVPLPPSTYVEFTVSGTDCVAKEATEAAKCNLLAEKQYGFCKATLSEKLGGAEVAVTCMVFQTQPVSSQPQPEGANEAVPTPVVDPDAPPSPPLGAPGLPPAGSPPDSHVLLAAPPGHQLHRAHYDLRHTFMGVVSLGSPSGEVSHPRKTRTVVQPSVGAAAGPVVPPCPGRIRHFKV


Target: T1, fetuin A in human plasma
Test: Plasma labeling of fetuin A with GGGK(biotin)
Assay type: biochemical
Conditions: for overall conjugation efficiency in human plasma (fetuin A, densitometry): 2 hours, room temperature
Experimental: FIG. 21A-D show applications of evolved sortases. (A) N- and C-terminal labeling of fibroblast growth factors FGF1 and FGF2. Tandem SUMO-TEV cleavage site-FGF1/2-LPESG-His6 (SEQ ID NO: 27) constructs were treated with eSrtA(4S-9) in the presence of GGG-PEG, then with eSrtA(2A-9) and TEV protease in the presence of Alexa Fluor750-LAETGG (SEQ ID NO: 35) and purified to afford the final conjugates in up to 20% yield (Table 3). The crude reactions were analyzed by SDS-PAGE and scanned for fluorescence at 700 nm. (B) Surface functionalization using eSrtA(2A-9) and eSrtA(4S-9). 96-well plates coated with GGG-PEG (5 kDa) were incubated with enzyme and Alexa Flur 488-LAETG (SEQ ID NO: 5; green) or Alexa Fluor 647-LPESG (SEQ ID NO: 3; red) for 2 hours, then washed three times. The total fluorescence of the resulting surfaces was measured at 488 nm or 647 nm, then normalized to the fluorescent intensities obtained from the samples containing eSrtA(2A-9)+488-LAETG (SEQ ID NO: 5) or eSrt(4S-9)+647-LPESG (SEQ ID NO: 3). (C, D) Treatment of human plasma with evolved SrtA variants for 2 hours at room temperature in the presence of GGGK(biotin) (SEQ ID NO: 22) with or without 10 mM CaCl2. […] Biotin capture and mass spectrometry identified this protein as fetuin A, confirmed by subsequent Western blot (D).
Normal human plasma was purchased from VWR (part number 89347-902) and stored at −20° C. For all reactions, an aliquot was thawed at 37° C. for 15 minutes, then vortexed to resuspend any coagulated material. To this sample was added 2 μL of 0.1 M GGGK(biotin) (SEQ ID NO: 22) for analytical reactions. Higher concentrations of GGGK(biotin) (SEQ ID NO: 22) were avoided for analytical purposes, as they caused increased background in downstream Western blotting. 10 μL of 1 M CaCl2 was added in cases of calcium supplementation. Reactions were initiated by the addition of 10 μL of 100 μM eSrtA, eSrtA(2A-9), or eSrtA(4S-9) and incubated at room temperature for 2 hours. Reactions were quenched by 10:1 dilution into SDS-PAGE loading buffer, followed by a 10 minute incubation at 95° C. These samples were then run on 4-12% Bis-Tris PAGE gels, blotted to PVDF membrane using the iBlot2 dry blotting system, blocked with Pierce Superblock buffer for 1 hour followed by incubation with 1:500 dilutions of Abcam α-Fetuin A antibody (MM0273-6M23) in Superblock buffer with 0.1% Tween-20 for 1 hour. The blot was then washed 3 times with PBS+0.1% Tween-20, then incubated again in 1:15,000 LiCor goat antimouse 680+1:15,000 Licor Streptavidin-800 in Superblock buffer with 0.1% Tween and 0.01% SDS added for 45 minutes. The blot was then washed 3 times with PBS+0.1% Tween and visualized on an Odyssey IR imager.
As in analytical labeling of Fetuin A, 1 mL of normal human plasma was combined with 10 μL 1M CaCl2, 10 μL of 0.1M GGGK(Biotin) (SEQ ID NO: 22), and 10 μL of 100 μM eSrtA(4S-9), then incubated at room temperature for 2 hours. 100 μL of pre-equilibrated Ni-NTA resin slurry and 12.5 μL 0.4M H2N-LPESGG (SEQ ID NO: 38) peptide was added to the mixture to act as a competitive inhibitor for thioester formation. The mixture was incubated at room temperature with shaking for 15 minutes, then filtered through a 0.2 μm spin filter before dilution to 10 mL final volume in PBS+1 mM EDTA+100 μM H2N-LPESGG (SEQ ID NO: 38) (PBS-EL). The solution was concentrated using a 10 kDa molecular weight cutoff spin concentrator for 20 minutes at 3500×g and a final volume of <1 mL. […]

[1] = presence of supplemental calcium (10 mM CaCl2)

Molecule | fetuin A conjugation efficiency lower than that of eSrtA(4S-9) (10 mM added CaCl2) [fold] | overall conjugation efficiency in human plasma (fetuin A, densitometry) [1] [%] | processing of fetuin A (without supplemental calcium) | overall conjugation efficiency in human plasma (fetuin A, densitometry) (absence of supplemental calcium) [%]
eSrtA (protein) QAKPQIPKDKSKVAGYIEIPDADIKEPVYPGPATREQLNRGVSFAEENESLDDQNISIAGHTFIDRPNYQFTNLKAAKKGSMVYFKVGNETRKYKMTSIRNVKPTAVEVLDEQKGKDKQLTLITCDDYNEETGVWETRKIFVATEVK | 90 | 0.6 | no processing | 
eSrtA(4S-9): P94R, N98D, S102C, A104V, A118T, F122A, K134R, F144L, D160N, D165A, I182V, E189F, K190E, K196T (protein) QAKPQIPKDKSKVAGYIEIPDADIKEPVYPGPATREQLDRGVCFVEENESLDDQNISITGHTAIDRPNYQFTNLRAAKKGSMVYLKVGNETRKYKMTSIRNVKPTAVEVLDEQKGKDKQLTLVTCDDYNFETGVWETRKIFVATEVK |  | 57.6 |  | 1.8
